Reference: the DeepSol protein solubility set

Test: soluble on expression in E. coli; label from the status in PepcDB or PDB records

Row | Sequence | soluble on expression in E. coli
1 | MGSDKIHHHHHHMKNIIGILGVFILAISCSGGKKESADAGLELTEDSVVYLLADNVTLGIKALFPFIDKDGHEYLTFQNQLEPEICVYDLQSGEFVKSIFFDREGANGVGMFGGYHIIDFDEIYLPSLQQSKVFVMEESGKKKREIITEKTDDGIPLLPFGAITFAYRPIYFNNGKMYIPQTVNMRLGNKVMEKSPVYVVVDTVKNVLSPFSIKFPPIMSSDDVTKPSLGNELSYSCCLNDKDQFVFSFFFDEDIYVVSLQDGEMKKIKVKSRYIDKPAIKENPPQDFDGAMKASSEIPCYGNLIYDKYRKVYYRFVYLKADLDGEKNYLNIWQYGRKSFSIMILNEDFDVIGETRFPDFTYISTLHYIGKDGLYLSDSHYKNPSFDENKLRFRRFKLVHYNKK | not soluble
2 | MDKMLEKFEGSILGLSIGDALGMPTEWFTKEEIAEKYGLIDNFVDPKNKFNGILKAGQYTDDTDQTIAILNSFDVRGFNNDIFIKELIKWYNNNPVGMGPTSTKAIEKLIEGDTTGCDSRTCGSSMRVGPLGLFYFGEYDKLKEITIKATKLTHNNDEAIAGALSIAFFVAESVNNVKSEKSIKRCAKFIEDVSYDFSEKILLINDLNSADEAYELFDTGLPAIECVPSAIATFLRTDTFKDGMISCVNAGGDTDSMGSMYGAIAGAYYGVLNIPELWIAGLQNKDLLVDLSKKLYKLRFKKLEHHHHHH | soluble
3 | MAHHHHHHMNSTTTISADPDGSSLCAASRISTPGTMSVLVPYKRRGQKSSMARGGASPQRRSPQPPYAGKSISTSASTLSSSVQPHGAGAASRGDQSRRGDAAPDGTLNAYSSHPAAPLDRPRDEEFDAVEQRARMALESIATRDEDLEPSMGDHIGVLQSYRTACEARAMYREAYLVQQVLRNLRLEEESRHVRGITEQQMEERRILEEAHRQEFREFHHSWNARIDAFEEEQLEAELALLERQNEELIRFQEEMRNFQPRLLRYSRSLLESRLKQQTLAKQRDYVGAQAQKAHAEAIEVEDIERFEAARMSLFERREYAARHRHQQELYALRTKVESRRLYLERYRKQELDVLLQRYINARRSMESQQNIVRNKTGTLLLKHACNMKTDSSGTAVLVESAGSGAFGTMVQRRQAYELRALQGSPDGASASVRDGSAM | not soluble
4 | MGSDKIHHHHHHMKVFDVHKFDMKKEQDFLQVQFNLKNRINLSPTIHPDSINTGAGVDLAYWEQDGEPYGVCCIIVIDADTKEVIEKVHSMGRISVPYVSGFLAFRELPLIIEAAKKLETEPDVFLFDGNGYLHYNHMGVATHAAFFLGKPTIGIAKTYLKIKGCDFVTPEIEVGAYTDIIIDGEVYGRALRTRRDVKPIFLSCGNYIDLDSSYQITMSLINQESRLPIPVRLADLETHVLRTFYQKNHV | not soluble
5 | MPVGRREQIVDCRSVMGLGEGGGLAQRGTFAEALKNDVVVVAMSPGRRHITKPVCEITYGIREAGIQTSVLVLNAGSGIPHDAPRGALGSTFGIKPEEAEQINRHKLCVVHFGNVISHIVYKAGLLLKYVEIPTIIVCQAPVDMEDLAKYGIKTRDVMPLEPKTKGTVVDIVTGVIRGESCPQTKIDEVIRKIKLHLNLNLEHHHHHH | soluble
6 | MLQSLKDVAKQAPVHRKLDIQEWKTAEGAKVLFVEAHELPMFDLRLTFAAGSSQDAGTPGLSMLTNAMLNEGVPGKDTTAIAAGFEDLGASFSNGSYRDMAVAGLRSLSEADKRTQALKLFEQVIGQPTFPEDALARIKNQVLAGFEYQKQNPGKLAGLELFKRLYGEHPYAHSSDGDEKSVPTISREQLQAFHKKAYAAGNVVIALVGDLSRQEAEAIAAEVSKALPQGPALAKTLEHHHHHH | soluble
7 | MDDASPTLASVIIPAFNAEAVLEQAVDSVRASIAHCAAHLAAAPAGAFEIILVDDASTDATLALARRLAAEDPRITVIARRRNGGAGPARNAGARAAKGEILFYLDADDGFLPPHVLACLQELLRHPEAGLVKTGIAVDFPLTEEWRQALIVSVVFNTALWKRCHEAIGGFMEDPELCVLRCEDVFYCDLLMRAFPARGIEAQTVRHTLRPGGAFDGQRAKFSAPPGEGPESLTPAQSAVLPLIRARHAERLARLGLEDAEALEHHHHHH | not soluble
8 | GEIYDEHDEVEAVQTLDNNTWLVLPNVKAAFFFNKWIKRDLVKSKNMTIQRYLASFENDGLNTQNKLETPWFIAEAIVDSENPEQIRYEIRKKSDVVD | soluble
9 | TTAIASDRLKKRFDRWDFDGNGALERADFEKEAQHIAEAFGKDAGAAEVQTLKNAFGGLFDYLAKEAGVGSDGSLTEEQFIRVTENLIFEQGEASFNRVLGPVVKGIVGMCDKNADGQINADEFAAWLTALGMSKAEAAEAFNQVDTNGNGELSLDELLTAVRDFHFGRLDVELLG | soluble
10 | MEALEEYTPTLLGEVAATLRGENELWLGLALISGKFNDLEPEQLAAAASALITETPRSDAWTDFKPSPVVLAALRPSNDLFGLLFCLKHPQPPLALWQAMTVADHLQRLNLWDLRRKLIKAQNQRAIAIPLWLEVDFMGLVEQWALGMEWENLCRQTSLDEGDLVRLFRRTVDLLWQIPQVPHLSPRLKRNARIAVQQMKRFPLLEHHHHHH | not soluble
11 | MKPTTRSASKRANAESSGVNQPEKKSRIPETEIVEDPLEIEVPPASADGTDNKSFSENEYDDDHSSSSDEESDDEYVVETHKSSMVDAAESSEGERPDERIVRELEQKIARGLKNDRILKKKKKALDGEVSDTEDVVCEYEPQAMPKQRRRRLYRRKMTRPQGVPKRRRIKRPDLELADDYTCDTFAEQGLTLKSLTSDIKQDDPEVDWKAMRRMGIGIRSTKRDEINSDEDEADIISHSFSFYQTRNSKEQVAQAVELNMNPFSEKIASYNAPKSVHGYSRSSIQNQHSGFIDKNDIKYPDELLWQEPFTHLVFFQSTFNAHESSIKFLNNVANSKKQERDSKLMKEIRERIKQKSLGHVDVPIDYTNVESTSEQPSTIDQYSLPDLTSQCDEGTIKEEEDFDYLMVDAEF | not soluble
12 | MGSDKIHHHHHHMNQTTLNTIRNYVMQASAQWISDFNQGNVQTCINRYLPSATMQVHPFGKFTSIEAIADFWLEFAKSNPSDLVYRNIEIKVLNDRQAVLSANWRMNIASGFISKELWTLAEDGQWYLEEDDFTVLAQHTKPVDDKRTALVLVDLQNDYFSGGRFELDNTDSAAKQASQLLAHFRQKELPVIHMQHLFEETNAAFFSANTVGAEIESSVKPTANEPVIIKHQIDSFIETTLEQTLVELGIDNLVIVGAMAQACVQTLCRSAVNKGYKCQVISDAIAAPKLEYQQHSFTGGQLVAANLLSLSFGGADITDTKGWLQENK | not soluble
13 | MSLKHTRPSIVNKRIDGRLTMSDNSKTRVVVGMSGGVDSSVTALLLKEQGYDVIGIFMKNWDDTDENGVCTATEDYKDVVAVADQIGIPYYSVNFEKEYWDRVFEYFLAEYRAGRTPNPDVMCNKEIKFKAFLDYAMTLGADYVATGHYARVARDEDGTVHMLRGVDNGKDQTYFLSQLSQEQLQKTMFPLGHLKKPEVRKLAEEAGLSTAKKKDSTGICFIGEKNFKNFLSNYLPAQPGRMMTVDGRDMGEHAGLMYYTIGQRGGLGIGGQHGGDNAPWFVVGKDLSKNILYVGQGFYHDSLMSTSLEASQVHFTREMPEEFTLECTAKFRYRQPDSKVTVHVKGDKAEVIFAEPQRAITPGQAVVFYDGEECLGGGLIDNAYRDGQVCQYIEGHHHHHH | soluble
14 | GMKKIRFAAIGLAHNHIYDMCQQLIDAGAELAGVFESDSDNRAKFTSLFPSVPFAASAEQLITDASIDLIACAVIPCDRAELALRTLDAGKDFFTAKPPLTTLEQLDAVQRRVAETGRKFAVYFNERINVDSALFAGELVQRGEIGRVIQTMGVGPHRERGARPDWFYQKRQYGGILCDIGIHQIEQFLYFTGNTNARVVTSQTANYHHPHHPEFEDFGDAMLLGDNGATGYFRCDWFTPDGLSVWGDGRLTILGTEGYIEIRKYVDLTRGESNVVYLVNGKGEQRFTPAGSVERAFFPDFLRDCRERTENAMSQSHIFKATELSILAQQAANKIA | soluble
15 | MAGIEITVIDYYHSKINKDSKMEIKIGELPKVLNKTYLGKLNATPSMNNPVKDTQGGEKQMESMLAYIKQKGWAGESKPNFVMNRNVIGAIPSSTGVENFIVFKTNDVQVIVKTPKEKGQESEGNQMEPWKSLIYGVNFEHHCTKTANEPLPTNDAVTKAVLKAHVPRTQEGSNNSSYSILYSAQIDGIDDKRQHYEMKVLNGGLTKYHLENSSCWFYWQSVFGNCNTLIVGSRTGKQDQDPKTLTKTRERQREELDDISYVSKFVSFSFKT | soluble
16 | MTHIIIDGDACPVVDSIIDLTTETGIFVTIIRSFSHFSNQLYPPHVSTLYVDDGPDAVDYKIVQLSTKDDIVVTQDYGLASLLVDKVLIVMHHNGKIYNSKNIQQLLDKRYINAQIRKQGGRHKGPPPFTKQDQKVFEQSLLKVIHRIKELDLEHHHHHH | soluble
17 | GPMGMQSIREQSCRVVTCKTCKYTHFKPKETCVSENHDFHWHNGVKRFFKCPCGNRTISLDRLPKKHCSTCGLFKWERVGMLKEKTGPKLGG | soluble
18 | MGSDKIHHHHHHMSELTQLFPQPLWQWFAQICAIPHPSKHEQALSLHIQQWAKDKGLSVIEDKVGNLIIKKPAFAGMEDRKKVVLQAHLDMVPQKNADKVHNFETDPIEAYIDGDWVKAKGTTLGSDNGIGMASALAILGSDSIKHGPLEVLLTIDEEAGMTGAFGLEAGMLEAEILINTDSEQEGEIYMGCAGGVDGQISLPMSWQSPEQSNSSFNLTLSGLKGGHSGVNIHLGRGNANKLLARFLFDYADDLALELVSFSGGSLRNAIPREASISFMLPPENLTALNQAIADFQALVREELAIADPGMLLTLVEVPAHTKVMGEDSQNTLIDLLHVCPNGVIRMSDEVEGVTETSLNVGVISTHDDSVEILCLIRSLIDSGRSEVTGMITALTHLAGADVEFSGAYPGWKPDTSSPVMAIVRETYNDIYHKDPTVMVIHAGLECGLFKEPYPAMDMVSIGPTIRYPHSPDEMVNITTVGQYWQLLLAVLERIPVRG | not soluble
19 | MAIRLPAEWEEQDGVLIAWPHPGSDWYPWLRLVEPVFAQIVREITRFETALVVAADGERTAALLEAVGARMERVAIVELPTNDTWARDFGPVTVERDGRPVLLDFGFNGWGLKFAADRDNLVTRRLRHLGIFGDIPAEMVGLVLEGGSIESDGRGTVLTTAECLLNPNRNPHLSRAEIEEALARYLGTERVLWLENGFLAGDDTDSHVDTLARLAPDDTIVYVRCDDATDEHYAALFMMEKELANLRTREGSPYRLIPLPWPRACFDHEGQRLPATYANFLVINGAVLVPVYDDPADEAALEAIGRAFPGREIVGIDCRPLIIQHGSLHCVTMQLPKGVLPCPNLEHHHHHH | soluble
20 | MGSDKIHHHHHHMGGAALPDNGWPADRIDTESAHSARIYDYIIGGKDYYPADKEAGDAMSREWPALPVHMRANRDWMNRAVAHLAKEAGIRQFLDIGTGIPTSPNLHEIAQSVAPESRVVYVDNDPIVLTLSQGLLASTPEGRTAYVEADMLDPASILDAPELRDTLDLTRPVALTVIAIVHFVLDEDDAVGIVRRLLEPLPSGSYLAMSIGTAEFAPQEVGRVAREYAARNMPMRLRTHAEAEEFFEGLELVEPGIVQVHKWHPDAATADGIRDEDIAMYGAVARKP | not soluble
